B1: Stearoyl-CoA desaturase (SCD1) [human (endogenous in HCT116)] / Sulfotransferase family 2B member 1 (SULT2B1) [human (endogenous in HCT116)] (parent complex)
chain 1: MPAHLLQDDISSSYTTTTTITAPPSRVLQNGGDKLETMPLYLEDDIRPDIKDDIYDPTYKDKEGPSPKVEYVWRNIILMSLLHLGALYGITLIPTCKFYTWLWGVFYYFVSALGITAGAHRLWSHRSYKARLPLRLFLIIANTMAFQNDVYEWARDHRAHHKFSETHADPHNSRRGFFFSHVGWLLVRKHPAVKEKGSTLDLSDLEAEKLVMFQRRYYKPGLLMMCFILPTLVPWYFWGETFQNSVFVATFLRYAVVLNATWLVNSAAHLFGYRPYDKNISPRENILVSLGAVGEGFHNYHHSFPYDYSASEYRWHINFTTFFIDCMAALGLAYDRKKVSKAAILARIKRTGDGNYKSG
chain 2: MDGPAEPQIPGLWDTYEDDISEISQKLPGEYFRYKGVPFPVGLYSLESISLAENTQDVRDDDIFIITYPKSGTTWMIEIICLILKEGDPSWIRSVPIWERAPWCETIVGAFSLPDQYSPRLMSSHLPIQIFTKAFFSSKAKVIYMGRNPRDVVVSLYHYSKIAGQLKDPGTPDQFLRDFLKGEVQFGSWFDHIKGWLRMKGKDNFLFITYEELQQDLQGSVERICGFLGRPLGKEALGSVVAHSTFSAMKANTMSNYTLLPPSLLDHRRGAFLRKGVCGDWKNHFTVAQSEAFDRAYRKQMRGMPTFPWDEDPEEDGSPDPEPSPEPEPKPSLEPNTSLEREPRPNSSPSPSPGQASETPHPRPS

The variants in this experiment derive from B1. As to the kind of experiment: co-IP (IP: SCD1, IB: SULT2B1), band quantification; HCT116 cells; parent: 1; read off a plot.
For chain 1 MPAHLLQDDISSSYTTTTTITAPPSRVLQNGGDKLETMPLYLEDDIRPDIKDDIYDPTYKDKEGPSPKVEYVWRNIILMSLLMLGALYGITLIPTCKFYTWLWGVFYYFVSALGITAGAHRLWSHRSYKARLPLRLFLIIANTMAFQNDVYEWARDHRAHHKFSETHADPHNSRRGFFFSHVGWLLVRKHPAVKEKGSTLDLSDLEAEKLVMFQRRYYKPGLLMMCFILPTLVPWYFWGETFQNSVFVATFLRYAVVLNATWLVNSAAHLFGYRPYDKNISPRENILVSLGAVGEGFHNYHHSFPYDYSASEYRWHINFTTFFIDCMAALGLAYDRKKVSKAAILARIKRTGDGNYKSG [chain 1 H83M], the ratio to parent was approximately 1.2.

In the case of chain 1 MPAHLLQDDISSSYTTTTTITAPPSRVLQNGGDKLETMPLYLEDDIRPDIKDDIYDPTYKDKEGPSPKVEYVWRNIILMELLHLGALYGITLIPTCKFYTWLWGVFYYFVSALGITAGAHRLWSHRSYKARLPLRLFLIIANTMAFQNDVYEWARDHRAHHKFSETHADPHNSRRGFFFSHVGWLLVRKHPAVKEKGSTLDLSDLEAEKLVMFQRRYYKPGLLMMCFILPTLVPWYFWGETFQNSVFVATFLRYAVVLNATWLVNSAAHLFGYRPYDKNISPRENILVSLGAVGEGFHNYHHSFPYDYSASEYRWHINFTTFFIDCMAALGLAYDRKKVSKAAILARIKRTGDGNYKSG [chain 1 S80E], the ratio to parent is approximately 0.5.

With chain 1 MPAHLLQDDISSSYTTTTTITAPPSRVLQNGGDKLETMPLYLEDDIRPDIKDDIYDPTYKDKEGPSPKVEYVWRNIILMFLLHLGALYGITLIPTCKFYTWLWGVFYYFVSALGITAGAHRLWSHRSYKARLPLRLFLIIANTMAFQNDVYEWARDHRAHHKFSETHADPHNSRRGFFFSHVGWLLVRKHPAVKEKGSTLDLSDLEAEKLVMFQRRYYKPGLLMMCFILPTLVPWYFWGETFQNSVFVATFLRYAVVLNATWLVNSAAHLFGYRPYDKNISPRENILVSLGAVGEGFHNYHHSFPYDYSASEYRWHINFTTFFIDCMAALGLAYDRKKVSKAAILARIKRTGDGNYKSG [chain 1 S80F], the ratio to parent is approximately 0.4.

For the variant chain 1 MPAHLLQDDISSSYTTTTTITAPPSRVLQNGGDKLETMPLYLEDDIRPDIKDDIYDPTYKDKEGPSPKVEYVWRNIILMRLLHLGALYGITLIPTCKFYTWLWGVFYYFVSALGITAGAHRLWSHRSYKARLPLRLFLIIANTMAFQNDVYEWARDHRAHHKFSETHADPHNSRRGFFFSHVGWLLVRKHPAVKEKGSTLDLSDLEAEKLVMFQRRYYKPGLLMMCFILPTLVPWYFWGETFQNSVFVATFLRYAVVLNATWLVNSAAHLFGYRPYDKNISPRENILVSLGAVGEGFHNYHHSFPYDYSASEYRWHINFTTFFIDCMAALGLAYDRKKVSKAAILARIKRTGDGNYKSG [chain 1 S80R], the ratio to parent is approximately 0.35.

Take chain 1 MPAHLLQDDISSSYTTTTTITAPPSRVLQNGGDKLETMPLYLEDDIRPDIKDDIYDPTYKDKEGPSPKVEYVWRNIILMSLLHLGALYGITLIPTCKFYTWLWGVFYYFVSALGITAGAHRLWSHRSYKARLPLRLFLIIANTMAFQNDVYEWARDHRAHHKFSETHADPHNSRRGFGFSHVGWLLVRKHPAVKEKGSTLDLSDLEAEKLVMFQRRYYKPGLLMMCFILPTLVPWYFWGETFQNSVFVATFLRYAVVLNATWLVNSAAHLFGYRPYDKNISPRENILVSLGAVGEGFHNYHHSFPYDYSASEYRWHINFTTFFIDCMAALGLAYDRKKVSKAAILARIKRTGDGNYKSG [chain 1 F178G]: the ratio to parent is approximately 2.6.

For the variant chain 1 MPAHLLQDDISSSYTTTTTITAPPSRVLQNGGDKLETMPLYLEDDIRPDIKDDIYDPTYKDKEGPSPKVEYVWRNIILMSLLHLGALYGITLIPTCKFYTWLWGVFYYFVSALGITAGAHRLWSHRSYKARLPLRLFLIIANTMAFQNDVYEWARDHRAHHKFSETHADPHNSRRGFAFSHVGWLLVRKHPAVKEKGSTLDLSDLEAEKLVMFQRRYYKPGLLMMCFILPTLVPWYFWGETFQNSVFVATFLRYAVVLNATWLVNSAAHLFGYRPYDKNISPRENILVSLGAVGEGFHNYHHSFPYDYSASEYRWHINFTTFFIDCMAALGLAYDRKKVSKAAILARIKRTGDGNYKSG [chain 1 F178A], the ratio to parent is approximately 2.4.

Source of the values: publication PMC10875708 (2024).
